Data on five molecules can be found in publication PMC10097714, “ALS-linked TDP-43 mutations interfere with the recruitment of RNA recognition motifs to G-quadruplex RNA”.

The target of series [1] is His-tagged RRM segment of TDP-43 (101-261aa) (UniProt Q13148). As to the kind of experiment: GST pull-down (glutathione sepharose beads) with western blotting, band quantification. Conditions: three experiments, parent: est. 1.0, read off a plot. On the technique in general: A western blot detects proteins with antibodies after separation by electrophoresis.
For series [2], the target named is T1, GST-RRM (human, UniProt Q13148 101-261). The series can be described thus: EMSA (agarose); higher affinity than CaMKIIa G4; EMSA: 20 mM PIPES-NaOH pH 6.8, 150 mM NaCl, 0.8 mM MgCl2, 10% glycerol, 0.1 mg/ml BSA, 0.1 mg/ml poly-dI-dC, 25 C, gel 0.5x TBE pH 6.8; SPR: 20 mM PIPES pH 6.8, 12 mM KCl, 0.8 mM MgCl2, 150 mM NaCl, 0.05% Tween-20, 25 C; UV cross-linking: EMSA buffer without poly-dI-dC; pull-down: PIPES pH 6.8, 145 mM NaCl, 5.4 mM KCl, 0.8 mM MgCl2, 1.8 mM CaCl2, 0.05% Tween-20, 10% …. The note with it: protein: recombinant; tags: GST; label: 5' Cy3, 3' Alexa Fluor 647; parallel G4, A loop. A general note: A gel shift assay detects complexes by their altered migration in electrophoresis.

Series [3] deals with T2, TDP-43 WT full-length (human, UniProt Q13148 1-414). The series can be described thus: EMSA (agarose); EMSA: 20 mM PIPES-NaOH pH 6.8, 150 mM NaCl, 0.8 mM MgCl2, 10% glycerol, 0.1 mg/ml BSA, 0.1 mg/ml poly-dI-dC, 25 C, gel 0.5x TBE pH 6.8; SPR: 20 mM PIPES pH 6.8, 12 mM KCl, 0.8 mM MgCl2, 150 mM NaCl, 0.05% Tween-20, 25 C; UV cross-linking: EMSA buffer without poly-dI-dC; pull-down: PIPES pH 6.8, 145 mM NaCl, 5.4 mM KCl, 0.8 mM MgCl2, 1.8 mM CaCl2, 0.05% Tween-20, 10% glycerol, 4 C. The note with it: protein: recombinant; tags: untagged; chain copies: 2; label: 5' Cy3, 3' Alexa Fluor 647; parallel G4, A loop.

Series [4] has as its target T1, GST-RRM. As to the kind of experiment: EMSA (agarose); lower affinity than PSD-95 G4; EMSA: 20 mM PIPES-NaOH pH 6.8, 150 mM NaCl, 0.8 mM MgCl2, 10% glycerol, 0.1 mg/ml BSA, 0.1 mg/ml poly-dI-dC, 25 C, gel 0.5x TBE pH 6.8; SPR: 20 mM PIPES pH 6.8, 12 mM KCl, 0.8 mM MgCl2, 150 mM NaCl, 0.05% Tween-20, 25 C; UV cross-linking: EMSA buffer without poly-dI-dC; pull-down: PIPES pH 6.8, 145 mM NaCl, 5.4 mM KCl, 0.8 mM MgCl2, 1.8 mM CaCl2, 0.05% Tween-20, 10% …. The note with it: protein: recombinant; tags: GST; label: 5' Cy3, 3' Alexa Fluor 647; parallel G4.

Series [5] deals with T2, TDP-43 WT full-length. The series is described as above. Conditions: protein: recombinant; tags: untagged; chain copies: 2; label: 5' Cy3, 3' Alexa Fluor 647; parallel G4.
Series [6] deals with T2, TDP-43 WT full-length. The series can be described thus: EMSA (agarose); up to 10x protein; EMSA: 20 mM PIPES-NaOH pH 6.8, 150 mM NaCl, 0.8 mM MgCl2, 10% glycerol, 0.1 mg/ml BSA, 0.1 mg/ml poly-dI-dC, 25 C, gel 0.5x TBE pH 6.8; SPR: 20 mM PIPES pH 6.8, 12 mM KCl, 0.8 mM MgCl2, 150 mM NaCl, 0.05% Tween-20, 25 C; UV cross-linking: EMSA buffer without poly-dI-dC; pull-down: PIPES pH 6.8, 145 mM NaCl, 5.4 mM KCl, 0.8 mM MgCl2, 1.8 mM CaCl2, 0.05% Tween-20, 10% glycerol, 4 C. Conditions: protein: recombinant; tags: untagged; chain copies: 2; label: 3' Alexa Fluor 647.

Series [7] has as its target T1, GST-RRM. The series can be described thus: EMSA (agarose); EMSA: 20 mM PIPES-NaOH pH 6.8, 150 mM NaCl, 0.8 mM MgCl2, 10% glycerol, 0.1 mg/ml BSA, 0.1 mg/ml poly-dI-dC, 25 C, gel 0.5x TBE pH 6.8; SPR: 20 mM PIPES pH 6.8, 12 mM KCl, 0.8 mM MgCl2, 150 mM NaCl, 0.05% Tween-20, 25 C; UV cross-linking: EMSA buffer without poly-dI-dC; pull-down: PIPES pH 6.8, 145 mM NaCl, 5.4 mM KCl, 0.8 mM MgCl2, 1.8 mM CaCl2, 0.05% Tween-20, 10% glycerol, 4 C. The note with it: protein: recombinant; tags: GST; label: 3' Alexa Fluor 647.

Regarding “GST-fused wild-type glycine-rich (GR) segment of TDP-43 G287S”, the ratio to parent is 0.52 in series [1] (+ CaMKIIα G4 RNA) and 0.31 in series [1] (+ PSD-95 G4 RNA).

As for “GST-fused wild-type glycine-rich (GR) segment of TDP-43 M337V”, the ratio to parent in series [1] (+ CaMKIIα G4 RNA) came to 0.26; in series [1] (+ PSD-95 G4 RNA), 0.2.

B1: Cy3-PSD-Ax647 (structured_RNA)
RNA: GGGGAAAAGGGAGGGAUGGG
As to B1, the binding result with GST-RRM [2] and in the series with TDP-43 WT full-length [3] was “binds” in each case.

B2: Cy3-CaMKII-Ax647 (structured_RNA)
RNA: UGGGGGGGGCGGGUGGGA
On to B2, for which the binding result with GST-RRM [4] and with TDP-43 WT full-length [5] was “binds” each time.

B3: UG10-Ax647 (ssRNA)
RNA: UGUGUGUGUGUGUGUGUGUG
On to B3, for which the binding result with TDP-43 WT full-length [6] is listed as “no binding”; in the series with GST-RRM [7], “binds”.
